From US20230140200A1, “COMPOSITIONS AND METHODS FOR DETECTING CELLS UNDERGOING FERROPTOSIS USING AN ANTIBODY” (THE TRUSTEES OF COLUMBIA UNIVERSITY IN THE CITY OF NEW YORK, priority 2020, published 2023)
Entries after “also recorded” stand apart in the source; their conditions may differ.

Legend:
SK-LMS-1 cells = assay: Immunofluorescence in SK-LMS-1 cells; type: cell-based, human; conditions: 1 μM RSL3, 4 h
[1] = tested on: B cell lymphoma mouse xenograft tumor tissue (SU-DHL-6 cells); assay: Staining of B cell lymphoma mouse xenograft tumor tissue sections; conditions: 40 mg/kg IKE once daily IP for 14 days
Method: Tumor tissues were fixed in 4% paraformaldehyde (PFA) for 24 h at 4° C. followed by washing with PBS three times. The tissues were perfused in 30% sucrose for 24 h at 4° C. for cryo-protection. The samples were embedded in OCT cryostat sectioning medium, and then moved directly into a cryostat. After equilibration of temperature, frozen tumor tissues were cut into 5 μm thick sections. Tissue sections were mounted on to poly-L-lysine coated slides by placing the cold sections onto warm slides. Slides were stored at −80° C. until staining. For staining, slides were warmed to room temperature followed by washing with PBS twice. A hydrophobic barrier pen was used to draw a circle on each slide. The slides were permeabilized with PBS with 0.4% Triton X-100 (PBT) twice before non-specific-binding blocking by incubating the sections with 10% goat serum (ThermoFisher 50197Z) for 30 min at room temperature. […] All images were captured on a Zeiss LSM 800 confocal microscope at Plan-Apochromat 63×/1.40 Oil DIC objective with constant laser intensity for all analyzed samples. The intensity above threshold of the fluorescent signal of the bound antibodies was analyzed using NIH ImageJ software (ImageJ, RRID:SCR_003070). Data were expressed as fold change comparing with the vehicle. […]

TfR1 = assay: Western blot of TfR1 during ferroptosis; type: cell-based, human; conditions: RSL3-induced and IKE-induced ferroptosis, HT-1080 cells
Method: HT-1080 cells were seeded in DMEM (Corning 10-013-CM) and 10% Hi-FBS with 1% penicillin and streptomycin (PS) with 1% MEM Non-Essential Amino Acids Solution (100×) (Thermo Fisher Scientific 11140-076) 16 h prior to use. DMSO or 1 μM of RSL3 was added and incubated for 4 h. Following treatment, the medium was aspirated from each dish and cells were washed twice with PBS. Cells were lysed with 70 μl lysis buffer (RIPA buffer from ThermoFisher, cat. 89900, 1 mM EDTA, 1 mM PMSF, 1× Halt™ protease inhibitor cocktail from ThermoFisher, cat. 78430 and 1× Halt™ phosphatase inhibitor cocktail from ThermoFisher, cat. 78426). Unlysed cells and debris were pelleted for 15 min at 16,000×g at 4° C. Samples were separated using SDS-PAGE and transferred to a polyvinylidene difluoride membrane. Transfer was performed using the iBlot2 system (Invitrogen). […]

human brain tissues = assay: Staining of post-mortem Huntington's disease and control brain tissues; conditions: HD and control groups
Method: FIGS. 12A-12B show 3F3 FMA staining in human Huntington's disease brains and mouse tissues. In FIG. 12A, human HD and control brain tissues were fixed in 4% PFA for 24 h, perfused in 30% sucrose for 24 h, and stained with DAPI (nuclei, blue) and 3F3 FMA (red). The expression level of TfR1 is low. There was no difference between HD and control groups. In FIG. 12B, mouse liver tissues and mouse GBM tissues were fixed and stained with DAPI (nuclei, blue) and 3F3 FMA (red). 3F3 FMA was able to recognize mouse TfR1.

B1: 3F3-FMA: Murine monoclonal IgG1 raised against ferroptotic membrane fractions; antigen is transferrin receptor protein 1 (TfR1) (antibody, V domains shown)
VH: EVLLQQSGTELVRPGALVKLSCKASGFNIQDLYIHWVKQRPEQGLEWIGWIDPETDNTIYDPKFQGKASITADTSSNTAYLQLSSLTSEDTAMYYCSTGLLQWYFDVWGAGTAVTVSS
VL: DIVMTQSPSSLAMSIGQKVTMRCKSSQSLLNSYNQKNCLAWYQQKPGQSPKLLLYFVSTRESGVPDRFIGSGSGTDFTLTISSVQAEDLADYFCQQHYSTPLTFGAGTKLELK
3F3-FMA staining upon ferroptosis induction (SK-LMS-1 cells): concentrated at the cell boundaries and became brighter | antibody staining intensity in IKE-treated vs vehicle tumor tissue [1]: did not detect its antigen; also recorded: no difference | intensity of western blot bands during ferroptosis (TfR1): increased intensity of the bands | staining signal in brain tissue (human brain tissues): lack of signal
